Substrate: N[C@@H](Cc1ccc(Oc2cc(I)c(O)c(I)c2)c(I)c1)C(=O)O
Test: cells, lysate or membranes
Conditions: other: net MCT8 transport, Michaelis-Menten analysis
Description: Apparent Km values were calculated by fitting the plot of uptake rate (v) versus ligand concentration (5) to the Michaelis Menten equation: v=Vmax/(1+Km/S), wherein Vmax is the maximum uptake rate, and Km the Michaelis constant. Calculations were performed using the Slide Write Plus program version 5.01 (Advanced Graphics Software).

B1: MCT8 (Rattus norvegicus; G227D/I169T/S199P/T171I) (protein)
chain: MALPSPASEEAEGPCQEANQEYQEPVCSPVPEPEPEPEPEPEPEPEPVPVPPPEPQPEPEPQPLPDPAPLPVLGFEAEPVQEPEPTPTVETRGTARGFQPPEGGFGWIVVFAATWCNGSIFGIHNSVGILYSMLLEEEKEKNRQVEFQAAWVGALAMGMIFFCSPIVSTFIDRLGCRITATTGAAVAFIGLHTSSFTSPLSLRYFTYGILFGCGCSFAFQPSLVILDHYFQRRLGLANGVVSAGSSIFSMSFPFLIKMLGDRIKLAQTFQVLSTFMFVLTLLSLTYRPLLPSSQDTPSKRGAHTLRQRFLVQFRKYFNMRVFRQRTYRIWAFGIAAAALGYFVPYVHLMKYVEDKFKEIKETWVLLVCIGATSGLGRLVSGHISDSIPGLKKIYLQVLSFLLLGLMSMMIPLCRDFGGLIVVCLFLGLCDGFFITIMAPIAFELVGPMQASQAIGYLLGMMALPMIAGPPIAGLLRNCFGNYHVAFYFAGVPPIIGAVILFFVPLMHQRMFKKEQRESSKDKMLSHDPDPNGELLPGSPTPEEPI
Km: 2.2 µM
